Series [1] concerns the target Populus trichocarpa tau glutathione transferase GSTU19 (PtGSTU19) (Populus trichocarpa). The series is described as follows: SEC-MALS; purified untagged recombinant protein; conditions not told in the text shown (Supplementary Figure S3B).
Series [2] has as its target Populus trichocarpa tau glutathione transferase GSTU20 (PtGSTU20) (Populus trichocarpa). The series is described as above.
Series [3] relates to CCCC(=O)Oc1ccc([N+](=O)[O-])cc1. The series can be described thus: purified protein, by the assay type. The settings on record: pH 8.0.
Another series deals with CCCCCC(O)C=CC=O. The series can be described thus: purified protein, by the assay type. The conditions noted are these: pH 8.0; 25.0 °C.
For another series, the system named is S=C=NCCc1ccccc1. The series is described as follows: purified protein, by the assay type. The settings on record: pH 8.0; 25.0 °C.
A further series has as its system S=C=NCc1ccccc1. The series can be described thus: purified protein, by the assay type. The conditions noted are these: pH 8.0.
Series [4] deals with CCCC(=O)Oc1ccc([N+](=O)[O-])cc1. The series can be described thus: GSH-conjugation activity toward model substrates, variant. The series is classed as biochemical, Populus trichocarpa. The settings on record: mean ± S.D., n = 3, pH 8.0.
Protocol: Peroxidase activity toward hydroperoxides was measured using an NADPH coupled spectrophotometric assay ([Pégeot et al., 2014]).
The measured velocities were corrected by subtracting the rate of the spontaneous nonenzymatic reaction, and three independent experiments were performed at each substrate concentration.
Setting [5] is: other: PtGSTU19 Y160A, fixed saturating GSH.
Where [6] appears, read: other: PtGSTU19 Y160C, fixed saturating GSH.
Setting [7] is: other: PtGSTU19 Y160F, fixed saturating GSH.
Where [8] appears, read: other: line printed as PtGSTU19 C160Y in Table S4, fixed saturating GSH.

PtGSTU19Y160A (Populus trichocarpa; Y160A), sequence (chain, as listed by the source Y160A): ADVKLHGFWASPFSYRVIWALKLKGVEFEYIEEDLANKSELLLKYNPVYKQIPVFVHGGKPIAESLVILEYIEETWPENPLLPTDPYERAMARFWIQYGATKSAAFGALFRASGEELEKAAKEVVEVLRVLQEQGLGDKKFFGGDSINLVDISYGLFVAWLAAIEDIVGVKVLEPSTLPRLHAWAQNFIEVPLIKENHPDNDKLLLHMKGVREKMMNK
PtGSTU20 (Populus trichocarpa), sequence (chain, as listed by the source): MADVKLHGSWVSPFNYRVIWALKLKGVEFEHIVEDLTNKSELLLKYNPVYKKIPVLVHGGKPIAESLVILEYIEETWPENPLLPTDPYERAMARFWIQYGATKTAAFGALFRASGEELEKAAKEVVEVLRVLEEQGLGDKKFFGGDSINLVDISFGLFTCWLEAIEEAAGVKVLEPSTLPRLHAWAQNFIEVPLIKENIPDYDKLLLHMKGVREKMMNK
PtGSTU19 (Populus trichocarpa), sequence (chain, as listed by the source): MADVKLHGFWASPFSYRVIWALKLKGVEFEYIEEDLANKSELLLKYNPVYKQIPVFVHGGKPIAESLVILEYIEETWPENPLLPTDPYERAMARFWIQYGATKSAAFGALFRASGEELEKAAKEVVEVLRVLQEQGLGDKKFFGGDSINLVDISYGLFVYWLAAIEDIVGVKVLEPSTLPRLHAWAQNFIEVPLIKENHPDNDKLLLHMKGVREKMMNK
PtGSTU19Y160F (Populus trichocarpa; Y160F), sequence (chain, as listed by the source Y160F): as the sequence (chain, as listed by the source Y160A) above, with A159F counted along it
PtGSTU19Y160C (Populus trichocarpa; Y160C), sequence (chain, as listed by the source Y160C): as the sequence (chain, as listed by the source Y160A) above, with A159C counted along it
PtGSTU20C160Y (Populus trichocarpa; C160Y), sequence (chain, as listed by the source C160Y): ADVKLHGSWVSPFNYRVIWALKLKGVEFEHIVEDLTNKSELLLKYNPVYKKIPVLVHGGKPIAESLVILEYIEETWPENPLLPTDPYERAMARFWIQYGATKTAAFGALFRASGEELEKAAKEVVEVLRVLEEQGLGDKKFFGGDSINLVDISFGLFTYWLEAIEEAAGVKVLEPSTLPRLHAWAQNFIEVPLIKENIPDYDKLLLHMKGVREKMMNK

The term stoichiometry N denotes the number of molecules, sites or subunits per partner or assembly. Consider “Populus trichocarpa tau glutathione transferase GSTU19 (PtGSTU19) (enzyme)”, for which, in series [1], the stoichiometry N is 2.
As for “Populus trichocarpa tau glutathione transferase GSTU20 (PtGSTU20) (enzyme)”, the stoichiometry N in series [2] was determined as 2.
Usually Km stands for the substrate concentration at which the rate is half of its maximum. For orientation: kcat means the maximal rate divided by the concentration of active sites. The kcat/Km is the second-order rate constant that governs catalysis at low substrate concentration. With PtGSTU19 (Populus trichocarpa), the Km in series [3] is 443.5 ± 31.1 µM; in the series with CCCCCC(O)C=CC=O, 56.4 ± 7.4 µM; in the series with S=C=NCCc1ccccc1, 48.4 ± 2.5 µM; in the series with S=C=NCc1ccccc1, 52.7 ± 3.6 µM. The kcat came out at 0.04 ± 0.001 s⁻¹ in series [3], 0.11 s⁻¹ with CCCCCC(O)C=CC=O, 3.8 s⁻¹ with S=C=NCCc1ccccc1 and 7 ± 0.1 s⁻¹ in the series on S=C=NCc1ccccc1. In addition, the kcat/Km was 100 ± 2 M⁻¹ s⁻¹ in series [3], 2000 M⁻¹ s⁻¹ with CCCCCC(O)C=CC=O, 79000 M⁻¹ s⁻¹ with S=C=NCCc1ccccc1 and 132200 ± 200 M⁻¹ s⁻¹ with S=C=NCc1ccccc1.
With “PtGSTU19Y160A (Populus trichocarpa; Y160A)”, in series [4] (setting [5]), the Km worked out at 534.6 ± 68.1 µM, the kcat came to 0.050 ± 0.002 s⁻¹ and the kcat/Km is listed as 0.090 ± 0.004 103M-1.s-1.
As for “PtGSTU19Y160C (Populus trichocarpa; Y160C)”, in series [4] (setting [6]), the Km is reported as 518.3 ± 57.6 µM, the catalytic constant (kcat) came to 0.050 ± 0.002 s⁻¹ and the specificity constant (kcat/Km) is on record as 0.100 ± 0.003 103M-1.s-1.
Regarding “PtGSTU19Y160F (Populus trichocarpa; Y160F)”, in series [4] (setting [7]), the Km worked out at 693.2 ± 63.8 µM, the kcat was found to be 0.050 ± 0.002 s⁻¹ and the kcat/Km is given as 0.080 ± 0.003 103M-1.s-1.
Regarding PtGSTU20 (Populus trichocarpa), the Km in series [3] was found to be 329.2 ± 28.1 µM; in the series with CCCCCC(O)C=CC=O it was 30.6 ± 3.5 µM; in the series on S=C=NCCc1ccccc1 it was 56.8 ± 4.1 µM; in the series with S=C=NCc1ccccc1, 149.6 ± 17.6 µM. Also, the kcat in series [3] was found to be 0.02 ± 0.001 s⁻¹; in the series on CCCCCC(O)C=CC=O, 0.11 s⁻¹; in the series on S=C=NCCc1ccccc1 it was 5.1 s⁻¹; in the series with S=C=NCc1ccccc1, 10.4 ± 0.3 s⁻¹. The kcat/Km was 60 ± 3 M⁻¹ s⁻¹ in series [3], 3600 M⁻¹ s⁻¹ in the series with CCCCCC(O)C=CC=O, 88900 M⁻¹ s⁻¹ in the series with S=C=NCCc1ccccc1 and 69800 ± 2200 M⁻¹ s⁻¹ with S=C=NCc1ccccc1.
On to “PtGSTU20C160Y (Populus trichocarpa; C160Y)”, for which, in series [4] (setting [8]), the Km was 326.2 ± 67.6 µM, the kcat turned out to be 0.020 ± 0.001 s⁻¹ and the kcat/Km is on record as 0.060 ± 0.003 103M-1.s-1.

These data come from paper PMC9412104, “Biochemical and Structural Insights on the Poplar Tau Glutathione Transferase GSTU19 and 20 Paralogs Binding Flavonoids” (Frontiers in Molecular Biosciences, 2022).
